This note sets out measurements from the supplement of paper PMC7877785.

A short description of this data set: self-splicing fitness, log relative to wild type (ln ratio); higher = more splicing; Tetrahymena group I intron in knt gene, E. coli kanamycin selection, DiMSum; sequences stand for … in CUCUCU…GGAGGGAAAAGUUAUCAGGCAUGCACCUGGUAGCUAGUCUUUAAACCAAUAGAUUGCAUCGGUUUAAAAGGCAAGACCGUCAAAUUGCGGGAAAGGGGUCAACAGCCGUUCAGUACCAAGUCUCAGGGGAAACUUUGAGAUGGCCUUGCAAAGGGUAUGGUAAUAAGCUGACGGACAUGGUCCUAACCACGCAGCCAAGUCCUAAGUCAACAGAUCUUCUGUUGAUAUGGAUGCAGUUCACAGACUAAAUGUCGGUCGGGGAAGAUGUAUUCUUCUCAUAAGAUAUAGUCGGACCUCUCCUUAAUGGGAGCUAGCGGAUGAAGUGAUGCAACACUGGAGCCGCUGGGAACUAAUUUGUAUGCGAAAGUAUAUUGAUUAGUUUUGGAGUACUCGUGGUCG
In outline: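 The eight P1ex-region nucleotides of an intron in the knt kanamycin-resistance gene on pET-22b(+) were all randomised and the library put into E. coli BL21(DE3). Six replicate transformations were grown overnight at 37°C or 30°C on LB agar with or without 25 μg/mL kanamycin, together with 100 μg/mL carbenicillin, 50 μM IPTG and 0.2% rhamnose. Colonies were pooled and amplicon-sequenced on an Illumina HiSeq 2500. Fitness from DiMSum is the error-weighted combination of wild-type-normalised replicate fold changes, kanamycin over none.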

± gives the uncertainty stated by the source.

Regarding GAUCAGCAAUAUUACGCCCU, the “self-splicing fitness (ln)” value is, setting by setting: (30 °C) -0.299 ± 0.069; (37 °C) 0.418 ± 0.084. The corresponding values for GAUCAGCAAUAUUACGCCUC are -1.36 ± 0.18 and -0.876 ± 0.23. The corresponding values for GAUCAGCAAUAUUACGCUGA are -3.83 ± 0.37 and -1.33 ± 0.21. The corresponding values for GAUCAGCAAUAUUACGCUUG are -1.02 ± 0.095 and 0.188 ± 0.12. Take GAUCAGCAAUAUUACGCUUU: the “self-splicing fitness (ln)” value is -1.02 ± 0.08 (30 °C) and -0.877 ± 0.11 (37 °C). The corresponding values for GAUCAGCAAUAUUACGGAUU are -3.32 ± 0.24 and -2.52 ± 0.24.

In the case of GAUCAGCAAUAUUACGGCGG, the “self-splicing fitness (ln)” value is, setting by setting: (30 °C) -2.43 ± 0.13; (37 °C) -2.06 ± 0.17. As to GAUCAGCAAUAUUACGGGCA, the “self-splicing fitness (ln)” value is -0.237 ± 0.098 (30 °C) and -0.574 ± 0.11 (37 °C). As to GAUCAGCAAUAUUACGGUCC, the “self-splicing fitness (ln)” value (30 °C) is -3.7 ± 0.33. For GAUCAGCAAUAUUACGGUGA, the “self-splicing fitness (ln)” value (30 °C) is -0.622 ± 0.069 and the “self-splicing fitness (ln)” value (37 °C) was -0.422 ± 0.075. On to GAUCAGCAAUAUUACGGUUA, for which the “self-splicing fitness (ln)” value is -0.25 ± 0.066 (30 °C) and 0.171 ± 0.067 (37 °C). Turning to GAUCAGCAAUAUUACGUCAA, the “self-splicing fitness (ln)” value was -1.01 ± 0.1 (30 °C) and -0.615 ± 0.14 (37 °C).

As for GAUCAGCAAUAUUACGUCAG, the “self-splicing fitness (ln)” value runs as follows: (30 °C) -4.35 ± 0.43; (37 °C) -2.43 ± 0.28. As for GAUCAGCAAUAUUACGUGCC, the “self-splicing fitness (ln)” value is, setting by setting: (30 °C) -1.16 ± 0.13; (37 °C) -0.652 ± 0.24. For GAUGAGCAAUAUUACGACGA, the “self-splicing fitness (ln)” value is -1.5 ± 0.13 (30 °C) and -1.3 ± 0.15 (37 °C). With GAUGAGCAAUAUUACGAGCG, the “self-splicing fitness (ln)” value (30 °C) was -2.62 ± 0.44.

Take GAUGAGCAAUAUUACGAUGU: the “self-splicing fitness (ln)” value reads like this: (30 °C) -2.63 ± 0.25; (37 °C) -2.15 ± 0.35. For GAUGAGCAAUAUUACGAUUU, the “self-splicing fitness (ln)” value reads like this: (30 °C) -1.07 ± 0.14; (37 °C) -2.1 ± 0.18. With GAUGAGCAAUAUUACGCUCG, the “self-splicing fitness (ln)” value (30 °C) is -3.02 ± 0.3 and the “self-splicing fitness (ln)” value (37 °C) is -2.75 ± 0.38.

For GAUGAGCAAUAUUACGCUUC, the “self-splicing fitness (ln)” value (30 °C) was -4.04 ± 0.43. Consider GAUGAGCAAUAUUACGGAAU, for which the “self-splicing fitness (ln)” value runs as follows: (30 °C) -3.1 ± 0.23; (37 °C) -2.66 ± 0.41. The corresponding values for GAUGAGCAAUAUUACGGACA are -2.22 ± 0.45 and -3.08 ± 0.47. The corresponding values for GAUGAGCAAUAUUACGGAUA are -3.94 ± 0.42 and -2.52 ± 0.26. The matching figures for GAUGAGCAAUAUUACGGCCA: -2.11 ± 0.44 and -0.871 ± 0.24. Take GAUGAGCAAUAUUACGGCGC: the “self-splicing fitness (ln)” value is, setting by setting: (30 °C) -0.349 ± 0.17; (37 °C) 0.649 ± 0.25. For the sequence GAUGAGCAAUAUUACGGGAU, the “self-splicing fitness (ln)” value (37 °C) is -2.36 ± 0.42. Turning to GAUGAGCAAUAUUACGGUCG, the “self-splicing fitness (ln)” value reads like this: (30 °C) -2.37 ± 0.12; (37 °C) -0.405 ± 0.12.

For the sequence GAUGAGCAAUAUUACGGUCU, the “self-splicing fitness (ln)” value was -3.87 ± 0.37 (30 °C) and -3.34 ± 0.26 (37 °C). The matching figures for GAUGAGCAAUAUUACGUAGG: -3.76 ± 0.27 and -1.79 ± 0.26.

Turning to GAUGAGCAAUAUUACGUCUC, the “self-splicing fitness (ln)” value reads like this: (30 °C) -2.96 ± 0.23; (37 °C) -1.5 ± 0.41.

For GAUGAGCAAUAUUACGUCUU, the “self-splicing fitness (ln)” value runs as follows: (30 °C) -1.41 ± 0.12; (37 °C) -0.691 ± 0.12. The matching figures for GAUGAGCAAUAUUACGUGAU: -3.66 ± 0.28 and -2.3 ± 0.24.

On to GAUUAGCAAUAUUACGAAAU, for which the “self-splicing fitness (ln)” value runs as follows: (30 °C) -2.4 ± 0.22; (37 °C) 1.2 ± 0.2. For GAUUAGCAAUAUUACGACCU, the “self-splicing fitness (ln)” value (30 °C) was -0.343 ± 0.13 and the “self-splicing fitness (ln)” value (37 °C) is -0.777 ± 0.18. The corresponding values for GAUUAGCAAUAUUACGAGAG are -3.5 ± 0.25 and -1.83 ± 0.18. In the case of GAUUAGCAAUAUUACGAGGU, the “self-splicing fitness (ln)” value was -3.27 ± 0.18 (30 °C) and -3.89 ± 0.33 (37 °C). The corresponding values for GAUUAGCAAUAUUACGAUCA are -0.826 ± 0.21 and -0.493 ± 0.19.

In the case of GAUUAGCAAUAUUACGCAAC, the “self-splicing fitness (ln)” value is, setting by setting: (30 °C) -3.22 ± 0.26; (37 °C) -1.89 ± 0.19.

For the sequence GAUUAGCAAUAUUACGCAGC, the “self-splicing fitness (ln)” value (30 °C) was -2.35 ± 0.31.
